Experiment [1] has as its target T1, human soluble urokinase plasminogen activator receptor (suPAR) (human, UniProt Q03405 23-303, limits assumed).
T1 construct: Target antigen of the scFv off-rate screen; also called hsuPAR; human suPAR
The experiment can be described thus: BLI (Octet) off-rate screen of scFv clones.

Experiment [2] addresses T2, cynomolgus soluble urokinase plasminogen activator receptor (suPAR) (cynomolgus, UniProt Q9GK78 23-303, limits assumed).
T2 construct: Target antigen of the scFv off-rate screen; also called cynomolgus suPAR; cynomolgus uPAR
Put plainly: BLI (Octet) off-rate screen of scFv clones.

T2 sequence (Q9GK78 23-303 limits assumed): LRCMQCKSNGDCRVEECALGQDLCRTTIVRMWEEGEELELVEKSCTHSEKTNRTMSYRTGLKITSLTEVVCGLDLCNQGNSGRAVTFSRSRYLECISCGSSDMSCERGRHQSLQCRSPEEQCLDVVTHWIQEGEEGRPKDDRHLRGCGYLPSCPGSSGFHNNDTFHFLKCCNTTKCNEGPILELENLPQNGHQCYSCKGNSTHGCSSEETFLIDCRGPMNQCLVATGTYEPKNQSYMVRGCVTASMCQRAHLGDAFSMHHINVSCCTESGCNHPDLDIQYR
T1 sequence (Q03405 23-303 limits assumed): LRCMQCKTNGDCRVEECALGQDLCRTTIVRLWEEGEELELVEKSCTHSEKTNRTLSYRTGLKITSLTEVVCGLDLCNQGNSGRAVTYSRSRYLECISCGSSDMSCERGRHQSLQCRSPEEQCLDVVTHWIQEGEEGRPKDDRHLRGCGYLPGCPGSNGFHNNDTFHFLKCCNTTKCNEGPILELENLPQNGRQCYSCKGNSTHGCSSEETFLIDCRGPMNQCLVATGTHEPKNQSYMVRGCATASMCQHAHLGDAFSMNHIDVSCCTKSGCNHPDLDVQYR

B1: suPAR_DB06_F07 (scFv, V domains shown)
VH: QVQLVQSGAEVKKPGASVKVSCKASGYTFTNYYMHWVRQAPGQGLEWMGWIDHENGNTIYDQKFQGRVTMTRDTSTSTVYMELSSLRSEDTAVYYCARGYDVDWFVYWGQGTLVTVSS
VL: DIQMTQSPSSLSASVGDRVTITCSARSSVSYMYWYQQKPGKAPKLLIYRTSNLASGVPSRFSGSGSGTDFTLTISSLQPEDFATYYCQQYHSYPPTFGGGTKVEIK
Regarding B1, the results for the koff in experiment [1] and in experiment [2] were 0.00402 s⁻¹ and 0.000455 s⁻¹, respectively.

B2: suPAR_DB06_C09 (scFv, V domains shown)
VH: QVQLVQSGAEVKKPGASVKVSCKASGYTFTSYYMHWVRQAPGQGLEWMGWIDPENGNTIYDQKFQGRVTMTRDTSTSTVYMELSSLRSEDTAVYYCARGYDVDWFVYWGQGTLVTVSS
VL: DIQMTQSPSSLSASVGDRVTITCRARSSVSYMYWYQQKPGKAPKLLIYRTSNLASGVPSRFSGSGSGTDFTLTISSLQPEDFATYYCQQYHSYPPTFGGGTKVEIK
B2: the koff (commonly the first-order rate constant of dissociation) in experiment [1] was 0.00382 s⁻¹; in experiment [2] it was 0.000566 s⁻¹.

B3: suPAR_DB06_C06 (scFv, V domains shown)
VH: QVQLVQSGAEVKKPGASVKVSCKASGYTFSNYYMHWVRQAPGQGLEWMGWIDHEGGNTSYAQKFQGRVTMTRDTSTSTVYMELSSLRSEDTAVYYCARGYDVDWFVYWGQGTLVTVSS
VL: DIQMTQSPSSLSASVGDRVTITCSARSSVSYMYWYQQKPGKAPKLLIYRTSNLASGVPSRFSGSGSGTDFTLTISSLQPEDFATYYCQQYHSYPPTFGGGTKVEIK
For B3, the dissociation rate constant (koff) was determined as 0.00311 s⁻¹ in experiment [1] and 0.00025 s⁻¹ in experiment [2].

B4: suPAR_DB06_D05 (scFv, V domains shown)
VH: QVQLVQSGAEVKKPGASVKVSCKASGGTFTGYYMHWVRQAPGQGLEWMGWIDPSGGNTIYDQKFQGRVTMTRDTSTSTVYMELSSLRSEDTAVYYCARGYDVDWFVYWGQGTLVTVSS
VL: DIQMTQSPSSLSASVGDRVTITCSARQSVSYMYWYQQKPGKAPKLLIYRTSNLASGVPSRFSGSGSGTDFTLTISSLQPEDFATYYCQQYHSYPPTFGGGTKVEIK
Regarding B4, the off-rate (koff) is 0.00558 s⁻¹ in experiment [1] and 0.000222 s⁻¹ in experiment [2].

B5: suPAR_DB06_C01 (scFv, V domains shown)
VH: QVQLVQSGAEVKKPGASVKVSCKASGYTFTGYYMHWVRQAPGQGLEWMGWIDPSNGNTIYDQKFQGRVTMTRDTSTSTVYMELSSLRSEDTAVYYCARGYDVDWFVYWGQGTLVTVSS
VL: DIQMTQSPSSLSASVGDRVTITCSARQSISYMYWYQQKPGKAPKLLIYRTSNLASGVPSRFSGSGSGTDFTLTISSLQPEDFATYYCQQYHSYPPTFGGGTKVEIK
For B5, the koff in experiment [1] is 0.00233 s⁻¹; in experiment [2], 1.49e-05 s⁻¹.

B6: suPAR_DB06_D09 (scFv, V domains shown)
VH: QVQLVQSGAEVKKPGASVKVSCKASGGTFTSYYMHWVRQAPGQGLEWMGWIDHENGSTIYAQKFQGRVTMTRDTSTSTVYMELSSLRSEDTAVYYCARGYDVDWFVYWGQGTLVTVSS
VL: DIQMTQSPSSLSASVGDRVTITCSASSSVSYMYWYQQKPGKAPKLLIYRTSNLASGVPSRFSGSGSGTDFTLTISSLQPEDFATYYCQQYHSYPPTFGGGTKVEIK
Take B6: the koff in experiment [1] turned out to be 0.00149 s⁻¹; in experiment [2], 0.000341 s⁻¹.

B7: suPAR_DB06_C12 (scFv, V domains shown)
VH: QVQLVQSGAEVKKPGASVKVSCKASGYSFTANYIHWVRQAPGQGLEWMGWIDHENGNTIYDQKFQGRVTMTRDTSTSTVYMELSSLRSEDTAVYYCANGYDVDWFVYWGQGTLVTVSS
VL: DIQMTQSPSSLSASVGDRVTITCSARSSVSYMYWYQQKPGKAPKLLIYRTSNLASGVPSRFSGSGSGTDFTLTISSLQPEDFATYYCQQYHSYPPTFGGGTKVEIK
For B7, the off-rate (koff) amounted to 0.00484 s⁻¹ in experiment [1] and 7.52e-05 s⁻¹ in experiment [2].

B8: suPAR_DB06_D08 (scFv, V domains shown)
VH: QVQLVQSGAEVKKPGASVKVSCKASGYTFTNYYMHWVRQAPGQGLEWMGWIDPEGGNTSYDQKFQGRVTMTRDTSTSTVYMELSSLRSEDTAVYYCARGYDVDWFVYWGQGTLVTVSS
VL: DIQMTQSPSSLSASVGDRVTITCSARSSVSYMYWYQQKPGKAPKLLIYRTSNLASGVPSRFSGSGSGTDFTLTISSLQPEDFATYYCQQYHSYPPTFGGGTKVEIK
With B8, the results for the koff in experiment [1] and in experiment [2] were 0.00166 s⁻¹ and 0.000715 s⁻¹, respectively.

B9: suPAR_DB06_B11 (scFv, V domains shown)
VH: QVQLVQSGAEVKKPGASVKVSCKASGYTFTSNYIHWVRQAPGQGLEWMGWIDHENGNTIYDQKFQGRVTMTRDTSTSTVYMELSSLRSEDTAVYYCAEGYDVDWFVYWGQGTLVTVSS
VL: DIQMTQSPSSLSASVGDRVTITCRARQSVSYMYWYQQKPGKAPKLLIYRTSNLASGVPSRFSGSGSGTDFTLTISSLQPEDFATYYCQQYHSYPPTFGGGTKVEIK
Regarding B9, the values for the koff in experiment [1] and in experiment [2] were 0.00489 s⁻¹ and 0.000128 s⁻¹, respectively.

B10: suPAR_DB06_D07 (scFv, V domains shown)
VH: QVQLVQSGAEVKKPGASVKVSCKASGYTFTNYYMHWVRQAPGQGLEWMGWIDHEGGNTIYAQKFQGRVTMTRDTSTSTVYMELSSLRSEDTAVYYCARGYDVDWFVYWGQGTLVTVSS
VL: DIQMTQSPSSLSASVGDRVTITCSARSSVSYMYWYQQKPGKAPKLLIYRTSNLASGVPSRFSGSGSGTDFTLTISSLQPEDFATYYCQQYHSYPPTFGGGTKVEIK
As to B10, the values for the koff in experiment [1] and in experiment [2] were 0.00244 s⁻¹ and 0.000565 s⁻¹, respectively.

B11: suPAR_DB06_C03 (scFv, V domains shown)
VH: QVQLVQSGAEVKKPGASVKVSCKASGYTFTSYYMHWVRQAPGQGLEWMGWIDPNSGGTNYAQKFQGRVTMTRDTSTSTVYMELSSLRSEDTAVYYCARGYDVDWFVYWGQGTLVTVSS
VL: DIQMTQSPSSLSASVGDRVTITCSARSSVSYMYWYQQKPGKAPKLLIYRTSNLASGVPSRFSGSGSGTDFTLTISSLQPEDFATYYCQQYHSYPPTFGGGTKVEIK
Take B11: the figures for the koff in experiment [1] and in experiment [2] were 0.00347 s⁻¹ and 0.000332 s⁻¹, respectively.

B12: suPAR_DB06_B10 (scFv, V domains shown)
VH: QVQLVQSGAEVKKPGASVKVSCKASGDTLTNYYMHWVRQAPGQGLEWMGWIDHENGSTIYAQKFQGRVTMTRDTSTSTVYMELSSLRSEDTAVYYCARGYDVDWFVYWGQGTLVTVSS
VL: DIQMTQSPSSLSASVGDRVTITCSARSSVSYMYWYQQKPGKAPKLLIYRTSNLQTGVPSRFSGSGSGTDFTLTISSLQPEDFATYYCQQYHSYPPTFGGGTKVEIK
Take B12: the koff in experiment [1] is 0.00141 s⁻¹; in experiment [2], 0.000587 s⁻¹.

B13: suPAR_DB06_C07 (scFv, V domains shown)
VH: QVQLVQSGAEVKKPGASVKVSCKASGYTFTNYYMHWVRQAPGQGLEWMGWIDPNGGGTQYAQKFQGRVTMTRDTSTSTVYMELSSLRSEDTAVYYCARGYDVDWFVYWGQGTLVTVSS
VL: DIQMTQSPSSLSASVGDRVTITCSARSSVSYMYWYQQKPGKAPKLLIYRTSNLASGVPSRFSGSGSGTDFTLTISSLQPEDFATYYCQQYHSYPPTFGGGTKVEIK
For B13, the koff in experiment [1] is 0.00495 s⁻¹; in experiment [2], 0.000387 s⁻¹.

B14: suPAR_DB06_B12 (scFv, V domains shown)
VH: QVQLVQSGAEVKKPGASVKVSCKASGYTFTNYYMHWVRQAPGQGLEWMGWIDPEGGNTIYDQKFQGRVTMTRDTSTSTVYMELSSLRSEDTAVYYCARGYDVDWFVYWGQGTLVTVSS
VL: DIQMTQSPSSLSASVGDRVTITCSARSSVSYMYWYQQKPGKAPKLLIYRTSNLASGVPSRFSGSGSGTDFTLTISSLQPEDFATYYCQQYHSYPPTFGGGTKVEIK
In the case of B14, the results for the koff in experiment [1] and in experiment [2] were 0.00203 s⁻¹ and 0.000293 s⁻¹, respectively.

B15: suPAR_DB06_D02 (scFv, V domains shown)
VH: QVQLVQSGAEVKKPGASVKVSCKASGYTFTSNYMHWVRQAPGQGLEWMGWIDHENGNTIYDQKFQGRVTMTRDTSTSTVYMELSSLRSEDTAVYYCARGYDVDWFVYWGQGTLVTVSS
VL: DIQMTQSPSSLSASVGDRVTITCSASSSVSYMYWYQQKPGKAPKLLIYRTSNLASGVPSRFSGSGSGTDFTLTISSLQPEDFATYYCQQYHSYPPTFGGGTKVEIK
Consider B15, for which the figures for the dissociation rate constant (koff) in experiment [1] and in experiment [2] were 0.00422 s⁻¹ and 0.00023 s⁻¹, respectively.

B16: suPAR_DB06_D06 (scFv, V domains shown)
VH: QVQLVQSGAEVKKPGASVKVSCKASGYTFTNYYMHWVRQAPGQGLEWMGWIDPENGNTIYAQKFQGRVTMTRDTSTSTVYMELSSLRSEDTAVYYCARGYDVDWFVYWGQGTLVTVSS
VL: DIQMTQSPSSLSASVGDRVTITCSARSSVSYMYWYQQKPGKAPKLLIYRTSNLASGVPSRFSGSGSGTDFTLTISSLQPEDFATYYCQQYHSYPPTFGGGTKVEIK
For the molecule B16, the koff in experiment [1] was determined as 0.00406 s⁻¹; in experiment [2] it was 0.000261 s⁻¹.

B17: suPAR_DB06_C10 (scFv, V domains shown)
VH: QVQLVQSGAEVKKPGASVKVSCKASGYTFSAYYMHWVRQAPGQGLEWMGWIDPSNGNTIYDQKFQGRVTMTRDTSTSTVYMELSSLRSEDTAVYYCARGYDVDWFVYWGQGTLVTVSS
VL: DIQMTQSPSSLSASVGDRVTITCSARSSVSYMYWYQQKPGKAPKLLIYRTSNLASGVPSRFSGSGSGTDFTLTISSLQPEDFATYYCQQYHSYPPTFGGGTKVEIK
B17: the koff in experiment [1] stood at 0.00599 s⁻¹; in experiment [2] it was 0.00048 s⁻¹.

B18: suPAR_DB06_D10 (scFv, V domains shown)
VH: QVQLVQSGAEVKKPGASVKVSCKASGYTFTSYYMHWVRQAPGQGLEWMGWIDPENGNTIYAQKFQGRVTMTRDTSTSTVYMELSSLRSEDTAVYYCARGYDVDWFVYWGQGTLVTVSS
VL: DIQMTQSPSSLSASVGDRVTITCSARSSVSYMYWYQQKPGKAPKLLIYRTSNLASGVPSRFSGSGSGTDFTLTISSLQPEDFATYYCQQYHSYPPTFGGGTKVEIK
On to B18, for which the koff in experiment [1] is 0.00425 s⁻¹; in experiment [2] it was 0.000365 s⁻¹.

B19: suPAR_DB06_C11 (scFv, V domains shown)
VH: QVQLVQSGAEVKKPGASVKVSCKASGYTFTNYYMHWVRQAPGQGLEWMGWIDHENGNTIYDQKFQGRVTMTRDTSTSTVYMELSSLRSEDTAVYYCARGYDVDWFVYWGQGTLVTVSS
VL: DIQMTQSPSSLSASVGDRVTITCSARQSVSYMYWYQQKPGKAPKLLIYRTSNLASGVPSRFSGSGSGTDFTLTISSLQPEDFATYYCQQYHSYPPTFGGGTKVEIK
In the case of B19, the results for the off-rate constant (koff) in experiment [1] and in experiment [2] were 0.00201 s⁻¹ and 0.000631 s⁻¹, respectively.

For the origin of these results see US20250215104A1 (WALDEN BIOSCIENCES, published 2025).
